Results published in paper PMC11679068, “Affinity Peptide-Based Circularly Permuted Fluorescent Protein Biosensors for Non-Small Cell Lung Cancer Diagnosis” (Sensors (Basel, Switzerland), 2024).
Peptide text beside a SMILES is read from it.

T1: carcinoembryonic antigen (UniProt P06731 35-685)
T1 construct: carcinoembryonic antigen (CEA), serum tumor marker; also called CEA; CAE
T1 sequence (looked up): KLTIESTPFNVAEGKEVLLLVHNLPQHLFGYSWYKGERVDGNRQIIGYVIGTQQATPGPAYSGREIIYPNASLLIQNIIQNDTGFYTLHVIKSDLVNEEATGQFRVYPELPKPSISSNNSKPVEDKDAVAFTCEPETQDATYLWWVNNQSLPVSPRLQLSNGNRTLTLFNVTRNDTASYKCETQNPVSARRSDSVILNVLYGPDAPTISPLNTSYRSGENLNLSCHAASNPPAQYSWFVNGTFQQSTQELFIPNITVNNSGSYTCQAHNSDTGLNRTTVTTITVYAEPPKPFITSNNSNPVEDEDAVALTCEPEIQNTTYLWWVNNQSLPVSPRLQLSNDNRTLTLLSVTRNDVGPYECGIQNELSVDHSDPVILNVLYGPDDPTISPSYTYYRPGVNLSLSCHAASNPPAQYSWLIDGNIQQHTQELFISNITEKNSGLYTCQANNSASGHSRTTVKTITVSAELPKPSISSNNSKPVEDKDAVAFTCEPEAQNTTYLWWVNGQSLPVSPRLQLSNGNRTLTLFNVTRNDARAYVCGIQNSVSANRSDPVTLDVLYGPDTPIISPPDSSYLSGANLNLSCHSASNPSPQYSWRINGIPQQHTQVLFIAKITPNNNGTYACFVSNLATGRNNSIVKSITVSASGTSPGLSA

T2: cytokeratin fragment 19 (Limits are not printed. The conventional CYFRA 21-1 soluble C-terminal fragment of KRT19 (after caspase-3 cleavage at Asp238) is used; from general knowledge, not from the paper or the candidate featu)
T2 chain: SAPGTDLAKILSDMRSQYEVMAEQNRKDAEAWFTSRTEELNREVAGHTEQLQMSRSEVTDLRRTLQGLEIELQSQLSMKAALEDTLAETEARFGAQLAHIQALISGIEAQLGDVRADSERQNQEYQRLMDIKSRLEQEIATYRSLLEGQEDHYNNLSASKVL

B1: synthetic peptide C3 (peptide)
peptide: WSPSALLPSSVT
notes: dodecapeptide C3 from phage display, synthesized; source: synthetic peptide (Fmoc solid phase, Synpeptide Co., HPLC purified)
B2: synthetic peptide C4 (peptide)
peptide: HHRLTRSMQLMM
notes: dodecapeptide C4 from phage display, synthesized; source: synthetic peptide (Fmoc solid phase, Synpeptide Co., HPLC purified)
B3: synthetic peptide C2 (peptide)
peptide: YGVSALSSYVSC
notes: dodecapeptide C2 from phage display, synthesized; source: synthetic peptide (Fmoc solid phase, Synpeptide Co., HPLC purified)
B4: synthetic peptide S1 (peptide)
peptide: TLSWHQNLRLME
notes: dodecapeptide S1 from phage display, synthesized; source: synthetic peptide (Fmoc solid phase, Synpeptide Co., HPLC purified)
B5: synthetic peptide S2 (peptide)
peptide: AYSRDVVLNMWR
notes: dodecapeptide S2 from phage display, synthesized; source: synthetic peptide (Fmoc solid phase, Synpeptide Co., HPLC purified)
B6: synthetic peptide S3 (peptide)
peptide: IQCFSLAPYVGC
notes: dodecapeptide S3 from phage display, synthesized; source: synthetic peptide (Fmoc solid phase, Synpeptide Co., HPLC purified)
B7: synthetic peptide Y1 (peptide)
peptide: CFAGTPSILMLA
notes: dodecapeptide Y1 from phage display, synthesized; source: synthetic peptide (Fmoc solid phase, Synpeptide Co., HPLC purified)
B8: synthetic peptide Y3 (peptide)
peptide: GMCSFVDVANCP
notes: dodecapeptide Y3 from phage display, synthesized; source: synthetic peptide (Fmoc solid phase, Synpeptide Co., HPLC purified)
B9: synthetic peptide Y10 (peptide)
peptide: QSYFNACWSCNH
notes: source: synthetic peptide (Fmoc solid phase, Synpeptide Co., HPLC purified)

How the values were obtained:
CYFRA 21-1 = experiment: BLI binding affinity of synthesized peptides to immobilized CYFRA 21-1; conditions: Octet RH96, CYFRA 21-1 immobilized on AR2G biosensors by amine coupling, room temperature, association 90 s, dissociation 180 s, KD = kd/ka
Experimental: The binding affinities of the peptides to their respective markers were assessed using an Octet RH96 instrument (Sartorius AG, Goettingen, Germany) with software version 12.2.1.18. Markers CEA, SCCAg, and CYFRA 21-1 were immobilized on amine reactive second-generation biosensors (AR2G, Sartorius AG) via amine coupling, with ethanolamine used to quench unreacted sites. Peptides were prepared in a range of concentrations. Experiments were conducted at room temperature and involved three phases: baseline (60 s), association (90 s), and dissociation (180 s). Data analysis was performed using Octet Data Analysis software version 11.0 to calculate the equilibrium dissociation constant (KD) as dissociation constant (kd)/association constant (ka).

carcinoembryonic antigen = molecular target: T1, carcinoembryonic antigen; experiment: BLI; Octet RH96; CEA, SCCAg or CYFRA 21-1 immobilised on AR2G biosensors by amine coupling; peptides in a range of concentrations; room temperature; association 90 s, dissociation 180 s; KD as kd/ka; conditions: both partners purified
[1] = molecular target: squamous cell carcinoma antigen (UniProt P29508 1-390); experiment: as above; conditions: both partners purified
cytokeratin fragment 19 = molecular target: T2, cytokeratin fragment 19; experiment: as above; conditions: both partners purified

Chain of squamous cell carcinoma antigen (P29508 whole entry, the tested form may be a part): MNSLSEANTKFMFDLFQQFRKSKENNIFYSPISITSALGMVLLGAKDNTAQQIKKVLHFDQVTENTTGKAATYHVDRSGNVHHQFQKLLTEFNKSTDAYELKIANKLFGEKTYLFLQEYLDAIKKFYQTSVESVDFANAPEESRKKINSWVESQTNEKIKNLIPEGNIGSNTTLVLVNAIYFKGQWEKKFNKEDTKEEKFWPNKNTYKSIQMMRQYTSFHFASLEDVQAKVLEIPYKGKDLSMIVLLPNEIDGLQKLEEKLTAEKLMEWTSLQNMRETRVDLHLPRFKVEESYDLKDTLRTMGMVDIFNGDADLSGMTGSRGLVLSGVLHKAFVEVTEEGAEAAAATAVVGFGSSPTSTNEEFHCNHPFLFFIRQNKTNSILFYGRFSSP

| Molecule | Kd (carcinoembryonic antigen) [nM] | Kd [1] [nM] | Kd (cytokeratin fragment 19) [nM] | also measured |
| --- | --- | --- | --- | --- |
| CSCC[C@H](NC(=O)CN)C(=O)N[C@@H](CS)C(=O)N[C@@H](CO)C(=O)N[C@@H](Cc1ccccc1)C(=O)N[C@H](C(=O)N[C@@H](CC(=O)O)C(=O)N[C@H](C(=O)N[C@@H](C)C(=O)N[C@@H](CC(N)=O)C(=O)N[C@@H](CS)C(=O)N1CCC[C@H]1C(=O)O)C(C)C)C(C)C [Peptide Y3] (H-GMCSFVDVANCP-OH) |  |  |  | Kd (CYFRA 21-1): 14 nM |
| B1 | 460 |  |  |  |
| B2 | 16 |  |  |  |
| B3 | 870 |  |  |  |
| B4 |  | 28 |  |  |
| B5 |  | 6.1 |  |  |
| B6 |  | 2900 |  |  |
| B7 |  |  | 83 |  |
| B8 |  |  | 14 |  |
| B9 |  |  | 1000 |  |
